# Measurements published in the RNAGym collection of RNA variant scans (doi:10.1093/molbev/msab373).
# B1: Azoarcus group I ribozyme (parent)
# chain: GUGCCUUGCGCCGGGAAACCACGCAAGGGAUGGUGUCAAAUUCGGCGAAACCUAAGCGCCCGCCCGGGCGUAUGGCAACGCCGAGCCAAGCUUCGGCGCCUGCGCCGAUGAAGGUGUAGAGACUAGACGGCACCCACCUAAGGCAAACGCUAUGGUGAAGGCAUAGUCCAGGGAGUGGCGAAAGUCACACAAACCGG
# Variants of: B1
# Experiment: reverse-splicing fitness (ratio to wild type); higher = more active; in vitro selection; Mg2+ level not given
# Method in brief: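 An in vitro group I ribozyme library with randomized positions was T7-transcribed and gel-purified. In triplicate, 10 pmol RNA in EPPS pH 7.5 was reacted with 50 pmoles of a 30-nt RNA substrate for 1 h at 37 °C across several added MgCl2 levels (1–48 mM), then stopped with EDTA. Products were reverse transcribed from a substrate-complementary primer, PCR-amplified and sequenced (HiSeq 4000). Fitness is a variant's read proportion after selection over that before, normalised to wild type.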
row,Variant,reverse-splicing fitness
1,A120G A145C U176G,0.0166
2,A120G A145G,0.503
3,A120G A145G C150A,0.0988
4,A120G A145G C150A C169A,0.0788
5,A120G A145G C150A C169A U176A,0.0345
6,A120G A145G C150A C169A U176C,0.0558
7,A120G A145G C150A C169A U176G,0.00587
8,A120G A145G C150A C169G,0.141
9,A120G A145G C150A C169G U176A,0.0656
10,A120G A145G C150A C169G U176C,0.0972
11,A120G A145G C150A C169G U176G,0.00637
12,A120G A145G C150A C169U,0.107
13,A120G A145G C150A C169U U176A,0.0726
14,A120G A145G C150A C169U U176C,0.0707
15,A120G A145G C150A C169U U176G,0.00665
16,A120G A145G C150A U176A,0.0568
17,A120G A145G C150A U176C,0.0809
18,A120G A145G C150A U176G,0.0109
19,A120G A145G C150G,0.088
20,A120G A145G C150G C169A,0.0607
21,A120G A145G C150G C169A U176A,0.0181
22,A120G A145G C150G C169A U176C,0.0319
23,A120G A145G C150G C169A U176G,0.00777
24,A120G A145G C150G C169G,0.106

row,Variant,reverse-splicing fitness
1,A120G A145G C150G C169G U176A,0.0179
2,A120G A145G C150G C169G U176C,0.0152
3,A120G A145G C150G C169G U176G,0.00607
4,A120G A145G C150G C169U,0.094
5,A120G A145G C150G C169U U176A,0.0263
6,A120G A145G C150G C169U U176C,0.0556
7,A120G A145G C150G C169U U176G,0.00777
8,A120G A145G C150G U176A,0.0423
9,A120G A145G C150G U176C,0.0592
10,A120G A145G C150G U176G,0.00816
11,A120G A145G C150U,0.436
12,A120G A145G C150U C169A,0.369
13,A120G A145G C150U C169A U176A,0.0867
14,A120G A145G C150U C169A U176C,0.157
15,A120G A145G C150U C169A U176G,0.0072
16,A120G A145G C150U C169G,0.502
17,A120G A145G C150U C169G U176A,0.149
18,A120G A145G C150U C169G U176C,0.216
19,A120G A145G C150U C169G U176G,0.00838
20,A120G A145G C150U C169U,0.37
21,A120G A145G C150U C169U U176A,0.145
22,A120G A145G C150U C169U U176C,0.175
23,A120G A145G C150U C169U U176G,0.0096
24,A120G A145G C150U U176A,0.151

row,Variant,reverse-splicing fitness
1,A120G A145G C150U U176C,0.212
2,A120G A145G C150U U176G,0.0181
3,A120G A145G C169A,0.424
4,A120G A145G C169A U176A,0.114
5,A120G A145G C169A U176C,0.185
6,A120G A145G C169A U176G,0.00693
7,A120G A145G C169G,0.639
8,A120G A145G C169G U176A,0.221
9,A120G A145G C169G U176C,0.268
10,A120G A145G C169G U176G,0.0103
11,A120G A145G C169U,0.441
12,A120G A145G C169U U176A,0.172
13,A120G A145G C169U U176C,0.199
14,A120G A145G C169U U176G,0.0155
15,A120G A145G U176A,0.193
16,A120G A145G U176C,0.246
17,A120G A145G U176G,0.0157
18,A120G A145U,0.508
19,A120G A145U C150A,0.0603
20,A120G A145U C150A C169A,0.0459
21,A120G A145U C150A C169A U176A,0.0229
22,A120G A145U C150A C169A U176C,0.035
23,A120G A145U C150A C169A U176G,0.00487
24,A120G A145U C150A C169G,0.0841

row,Variant,reverse-splicing fitness
1,A120G A145U C150A C169G U176A,0.0455
2,A120G A145U C150A C169G U176C,0.061
3,A120G A145U C150A C169G U176G,0.00649
4,A120G A145U C150A C169U,0.0677
5,A120G A145U C150A C169U U176A,0.0594
6,A120G A145U C150A C169U U176C,0.0534
7,A120G A145U C150A C169U U176G,0.00749
8,A120G A145U C150A U176A,0.0378
9,A120G A145U C150A U176C,0.0519
10,A120G A145U C150A U176G,0.00673
11,A120G A145U C150G,0.07
12,A120G A145U C150G C169A,0.0517
13,A120G A145U C150G C169A U176A,0.0196
14,A120G A145U C150G C169A U176C,0.0317
15,A120G A145U C150G C169A U176G,0.00439
16,A120G A145U C150G C169G,0.0994
17,A120G A145U C150G C169G U176A,0.024
18,A120G A145U C150G C169G U176C,0.011
19,A120G A145U C150G C169G U176G,0.00487
20,A120G A145U C150G C169U,0.0748
21,A120G A145U C150G C169U U176A,0.0333
22,A120G A145U C150G C169U U176C,0.0556
23,A120G A145U C150G C169U U176G,0.00602
24,A120G A145U C150G U176A,0.0351

row,Variant,reverse-splicing fitness
1,A120G A145U C150G U176C,0.0502
2,A120G A145U C150G U176G,0.00612
3,A120G A145U C150U,0.384
4,A120G A145U C150U C169A,0.33
5,A120G A145U C150U C169A U176A,0.08
6,A120G A145U C150U C169A U176C,0.14
7,A120G A145U C150U C169A U176G,0.00609
8,A120G A145U C150U C169G,0.487
9,A120G A145U C150U C169G U176A,0.157
10,A120G A145U C150U C169G U176C,0.207
11,A120G A145U C150U C169G U176G,0.00892
12,A120G A145U C150U C169U,0.33
13,A120G A145U C150U C169U U176A,0.14
14,A120G A145U C150U C169U U176C,0.162
15,A120G A145U C150U C169U U176G,0.0135
16,A120G A145U C150U U176A,0.155
17,A120G A145U C150U U176C,0.184
18,A120G A145U C150U U176G,0.0161
19,A120G A145U C169A,0.447
20,A120G A145U C169A U176A,0.113
21,A120G A145U C169A U176C,0.166
22,A120G A145U C169A U176G,0.00923
23,A120G A145U C169G,0.618
24,A120G A145U C169G U176A,0.206

row,Variant,reverse-splicing fitness
1,A120G A145U C169G U176C,0.264
2,A120G A145U C169G U176G,0.0156
3,A120G A145U C169U,0.446
4,A120G A145U C169U U176A,0.174
5,A120G A145U C169U U176C,0.194
6,A120G A145U C169U U176G,0.0221
7,A120G A145U U176A,0.197
8,A120G A145U U176C,0.269
9,A120G A145U U176G,0.0162
10,A120G C150A,0.0647
11,A120G C150A C169A,0.0602
12,A120G C150A C169A U176A,0.0363
13,A120G C150A C169A U176C,0.0393
14,A120G C150A C169A U176G,0.00569
15,A120G C150A C169G,0.0903
16,A120G C150A C169G U176A,0.0606
17,A120G C150A C169G U176C,0.0784
18,A120G C150A C169G U176G,0.00584
19,A120G C150A C169U,0.071
20,A120G C150A C169U U176A,0.0635
21,A120G C150A C169U U176C,0.0621
22,A120G C150A C169U U176G,0.00851
23,A120G C150A U176A,0.0445
24,A120G C150A U176C,0.058

row,Variant,reverse-splicing fitness
1,A120G C150A U176G,0.0094
2,A120G C150G,0.0593
3,A120G C150G C169A,0.0439
4,A120G C150G C169A U176A,0.0128
5,A120G C150G C169A U176C,0.0257
6,A120G C150G C169A U176G,0.0055
7,A120G C150G C169G,0.0731
8,A120G C150G C169G U176A,0.0132
9,A120G C150G C169G U176C,0.00733
10,A120G C150G C169G U176G,0.00469
11,A120G C150G C169U,0.0614
12,A120G C150G C169U U176A,0.0245
13,A120G C150G C169U U176C,0.0422
14,A120G C150G C169U U176G,0.00662
15,A120G C150G U176A,0.0287
16,A120G C150G U176C,0.0392
17,A120G C150G U176G,0.00499
18,A120G C150U,0.318
19,A120G C150U C169A,0.29
20,A120G C150U C169A U176A,0.0776
21,A120G C150U C169A U176C,0.126
22,A120G C150U C169A U176G,0.00612
23,A120G C150U C169G,0.419
